From publication PMC11460708 (PLOS Pathogens, 2024) come the findings set out here.

The target of one test is T1, XBB.1.5 RBD (SARS-CoV-2 Omicron XBB.1.5 (GISAID …, E484A (prototypic numbering) | F490S (prototypic numbering))).
T1 construct: not shown: His tag, C-terminal, kept
In words: SPR. The conditions noted are these: both partners purified.

Another test addresses T2, BA.1 RBD (SARS-CoV-2 Omicron BA.1 (GISAID …, strain)).
T2 construct: not shown: His tag, C-terminal, kept
In words: SPR. The conditions noted are these: both partners purified.

B1: Nanosota-3C (VHH)
VHH: QVQLQESGGGLVQAGGSLRLSCAASGSIFSPNTMGWFRQALGKQREGVAFISSIASTSYWLPVKGRFTITRDNTKNTVHLQMNSLIPEDTAVYYCYAVDKSQDYWGQGTQVTVSS
What is called Kd is the equilibrium constant for the complex coming apart. As for B1, the Kd with XBB.1.5 RBD stood at 2.04 nM; with BA.1 RBD, 27.3 nM.
